In PMC5489476, “A thermophilic cell-free cascade enzymatic reaction for acetoin synthesis from pyruvate” (Scientific Reports, 2017):

Assays:
coAHASL1 = target: T1, coAHASL1 (Caldicellulosiruptor owensensis, UniProt E4Q3I4); assay: colorimetric acetoin assay; activity with […] FAD; type: biochemical; conditions: pyruvate, ThDP, Mg2+; 65 °C, Tris pH 6.5
T1 construct: gene Calow_0356; catalytic subunit alone, EC 2.2.1.6
T1 sequence (E4Q3I4 1-536): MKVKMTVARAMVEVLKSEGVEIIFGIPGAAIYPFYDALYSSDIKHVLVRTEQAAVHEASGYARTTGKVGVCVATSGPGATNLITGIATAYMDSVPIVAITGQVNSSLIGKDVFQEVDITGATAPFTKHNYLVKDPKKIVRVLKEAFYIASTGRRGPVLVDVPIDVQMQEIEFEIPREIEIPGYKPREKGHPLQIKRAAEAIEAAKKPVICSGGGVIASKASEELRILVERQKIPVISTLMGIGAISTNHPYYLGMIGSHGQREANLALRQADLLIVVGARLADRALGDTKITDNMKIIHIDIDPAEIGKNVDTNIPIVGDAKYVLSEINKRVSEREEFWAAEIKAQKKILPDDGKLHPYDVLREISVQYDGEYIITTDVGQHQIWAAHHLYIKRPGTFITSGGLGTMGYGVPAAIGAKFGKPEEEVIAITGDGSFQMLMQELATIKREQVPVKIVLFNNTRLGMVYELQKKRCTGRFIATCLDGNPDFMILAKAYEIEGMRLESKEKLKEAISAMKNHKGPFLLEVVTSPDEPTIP

coAHASL2 = target: T2, coAHASL2 (Caldicellulosiruptor owensensis, UniProt E4Q4G3); assay: colorimetric acetoin assay; activity with […] FAD; type: biochemical; conditions: pyruvate, ThDP, Mg2+; 65 °C, Tris pH 6.5
T2 construct: gene Calow_0543; catalytic subunit alone, EC 2.2.1.6
T2 sequence (E4Q4G3 1-552): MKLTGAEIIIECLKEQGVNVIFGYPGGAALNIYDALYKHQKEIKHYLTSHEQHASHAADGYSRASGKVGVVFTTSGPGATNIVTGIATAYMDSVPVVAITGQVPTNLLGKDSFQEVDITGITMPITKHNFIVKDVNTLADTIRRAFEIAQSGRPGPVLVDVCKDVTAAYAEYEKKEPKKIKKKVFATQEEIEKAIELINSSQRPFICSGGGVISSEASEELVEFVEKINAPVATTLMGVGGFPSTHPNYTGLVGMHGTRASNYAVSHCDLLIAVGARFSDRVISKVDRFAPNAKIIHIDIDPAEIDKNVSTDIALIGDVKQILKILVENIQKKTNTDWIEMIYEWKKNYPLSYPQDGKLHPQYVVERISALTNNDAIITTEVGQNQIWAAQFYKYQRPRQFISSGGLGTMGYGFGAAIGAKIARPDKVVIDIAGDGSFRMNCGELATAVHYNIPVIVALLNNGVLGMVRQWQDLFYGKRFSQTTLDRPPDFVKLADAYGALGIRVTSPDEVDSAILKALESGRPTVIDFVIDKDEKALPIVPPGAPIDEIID

purified protein = substrate: CC(=O)C(=O)O; assay: purified protein; type: biochemical, Caldicellulosiruptor owensensis; conditions: ThDP, FAD, Mg2+, catalytic subunit alone
[1] = 70 °C, pH 6.5 (citrate-phosphate)

Question: What does the source list for `Cc1cc2nc3c(=O)[nH]c(=O)nc-3n(C[C@H](O)[C@H](O)[C@H](O)COP(=O)(O)OP(=O)(O)OC[C@H]3O[C@@H](n4cnc5c(N)ncnc54)[C@H](O)[C@@H]3O)c2cc1C` [FAD]?
Answer: activity enhancement (coAHASL1): concentration-dependent enhancements of both coAHASL1 and coAHASL2 were observed upon the addition of FAD; activity enhancement (coAHASL2): concentration-dependent enhancements of both coAHASL1 and coAHASL2 were observed upon the addition of FAD

B1: coAHASL2 (Caldicellulosiruptor owensensis OL) (protein)
chain: MKLTGAEIIIECLKEQGVNVIFGYPGGAALNIYDALYKHQKEIKHYLTSHEQHASHAADGYSRASGKVGVVFTTSGPGATNIVTGIATAYMDSVPVVAITGQVPTNLLGKDSFQEVDITGITMPITKHNFIVKDVNTLADTIRRAFEIAQSGRPGPVLVDVCKDVTAAYAEYEKKEPKKIKKKVFATQEEIEKAIELINSSQRPFICSGGGVISSEASEELVEFVEKINAPVATTLMGVGGFPSTHPNYTGLVGMHGTRASNYAVSHCDLLIAVGARFSDRVISKVDRFAPNAKIIHIDIDPAEIDKNVSTDIALIGDVKQILKILVENIQKKTNTDWIEMIYEWKKNYPLSYPQDGKLHPQYVVERISALTNNDAIITTEVGQNQIWAAQFYKYQRPRQFISSGGLGTMGYGFGAAIGAKIARPDKVVIDIAGDGSFRMNCGELATAVHYNIPVIVALLNNGVLGMVRQWQDLFYGKRFSQTTLDRPPDFVKLADAYGALGIRVTSPDEVDSAILKALESGRPTVIDFVIDKDEKALPIVPPGAPIDEIID
notes: catalytic subunit alone, EC 2.2.1.6
Question: Which results are given for B1?
Answer: Km (purified protein; [1]): 53.78 ± 2.68 mM; Vmax (purified protein; [1]): 0.7 µmol/min/mg

B2: coAHASL1 (Caldicellulosiruptor owensensis OL) (protein)
chain: MKVKMTVARAMVEVLKSEGVEIIFGIPGAAIYPFYDALYSSDIKHVLVRTEQAAVHEASGYARTTGKVGVCVATSGPGATNLITGIATAYMDSVPIVAITGQVNSSLIGKDVFQEVDITGATAPFTKHNYLVKDPKKIVRVLKEAFYIASTGRRGPVLVDVPIDVQMQEIEFEIPREIEIPGYKPREKGHPLQIKRAAEAIEAAKKPVICSGGGVIASKASEELRILVERQKIPVISTLMGIGAISTNHPYYLGMIGSHGQREANLALRQADLLIVVGARLADRALGDTKITDNMKIIHIDIDPAEIGKNVDTNIPIVGDAKYVLSEINKRVSEREEFWAAEIKAQKKILPDDGKLHPYDVLREISVQYDGEYIITTDVGQHQIWAAHHLYIKRPGTFITSGGLGTMGYGVPAAIGAKFGKPEEEVIAITGDGSFQMLMQELATIKREQVPVKIVLFNNTRLGMVYELQKKRCTGRFIATCLDGNPDFMILAKAYEIEGMRLESKEKLKEAISAMKNHKGPFLLEVVTSPDEPTIP
notes: as for B1
Question: Which Km (purified protein; 65 °C, pH 6.5 (Tris)) does the source give for B2 here?
Answer: 71.83 ± 4.63 mM

Question: What about the Vmax (purified protein; 65 °C, pH 6.5 (Tris)) of the same molecule?
Answer: 3.7 µmol/min/mg
